“Also recorded” adds a separate entry of the source.
B1: EpCAM-AsiC: EpCAM aptamer-siRNA chimera, siRNA cargo not specified at the place; 2'-fluoropyrimidines, 3'-dTdT (nucleic acid)
sense: GCGACUGGUUACCCGGUCGUUUUGAAGAAGAUCACCCUCCUUATT
antisense: UAAGGAGGGUGAUCUUCUUCATT
modifications: DNA at T, 2'-fluoro at CU, RNA at AG, backbone not given here; further chemistry not fully specified
notes: EpCAM aptamer-siRNA chimera, siRNA cargo not specified at the place; 2'-fluoropyrimidines, 3'-dTdT
B2: PLK1 EpCAM-AsiC: EpCAM aptamer linked by U-U-U to PLK1 siRNA sense strand (SEQ ID NO: 1), annealed to antisense strand (SEQ ID NO: 2) (nucleic acid)
sense: B1 sense
antisense: UAAGGAGGGUGAUCUUCUUCATT
modifications: DNA at T, 2'-fluoro at CU, RNA at AG, backbone not given here; EpCAM aptamer fused to sense strand

Legend:
[1] = tested on: subcutaneous tumors; test: Tumor accumulation after intravenous injection of fluorescent EpCAM-AsiCs; assay type: in vivo, nude mice; settings: tail vein
Source text: To be clinically useful, EpCAM-AsiCs need to be taken up by disseminated tumor cells. […] The EpCAM-AsiCs were detected around the injection site on day 2, but were only found within the EpCAM+ tumor on day 4.

[2] = tested on: EpCAM+ cell lines; test: In vitro gene knockdown by AsiC designs; assay type: cell-based, human
[3] = tested on: basal-B TNBC cells (MB436, MB231); test: Tumor initiation by ex vivo treated EpCAM− basal-B cells in nude mice; settings: cells treated ex vivo overnight, then implanted; listed as PLK1 EpCAM-AsiCs
Source text: EpCAM was chosen for targeting in part because EpCAM marks T-ICs and metastasis-initiating cells (M-IC).^20,22,26,27,31 To investigate whether EpCAM-AsiCs inhibit T-ICs, we compared colony and mammosphere formation (T-IC functional surrogate assays) after mock treatment, treatment with paclitaxel or with EpCAM-AsiCs against eGFP or PLK1. […] T-IC inhibition was specific, since eGFP AsiCs had no effect. […] To evaluate the effect of EpCAM-AsiCs on tumor initiation, EpCAM+MB468 cells stably expressing luciferase were treated overnight with medium or PLK1 or eGFP EpCAM-AsiCs and equal numbers of viable cells were then implanted sc in nude mice. […] Thus PLK1 EpCAM-AsiCs inhibit in vitro T-IC assays and tumor initiation selectively for EpCAM+ breast cancers.
EpCAM-AsiCs inhibit T-ICs of EpCAM+ tumors. EpCAM was chosen for targeting partly because EpCAM marks T-ICs and metastasis-initiating cells (M-IC). To investigate whether EpCAM-AsiCs inhibit T-ICs, we compared colony and mammosphere formation (T-IC functional surrogates) after mock treatment, treatment with paclitaxel or with EpCAM-AsiCs against eGFP or PLK1. […] To evaluate EpCAM-AsiC's effect on tumor initiation, viable luc+ EpCAM+ MB468 and EpCAM− MB231 cells, treated overnight with medium or PLK1 or GFP EpCAM-AsiCs, were implanted sc in nude mice. […] Thus EpCAM-AsiCs inhibit tumor initiation in EpCAM+ breast cancers.

[4] = tested on: MB468-luc cells; test: Tumor initiation by ex vivo treated EpCAM+ cells in nude mice; settings: cells treated ex vivo 24 h/overnight, then implanted, imaged 20 days
Description: For tumor initiation studies 8-week old female Nu/J mice (Stock #002019, Jackson Laboratories) were injected subcutaneously with MB468-luc (5×10^6) cells pretreated for 24 h with EpCAM-AsiC-GFP, EpCAM-AsiC-PLK1 or untreated. Cells were trypsinized with Tryple Express (Invitrogen), resuspended in WIT media and injected subcutaneously in the flank. Following intraperitoneal injection of 150 mg/kg D-luciferin (Caliper Life Sciences) luminescent images of the whole body were taken every 5 days for a total of 20 days using the IVIS Spectra system (Caliper Life Sciences).

[5] = tested on: MCF10CA1a (CA1a) tumor; test: MCF10CA1a tumor growth, AsiC injected sc near the tumor; assay type: in vivo, mice; settings: luminescent photon flux, N=4
Description: The top panel depicts the experimental scheme. In this experiment the AsiCs were injected sc in the flank near the tumor, but not into the tumor. The bottom panel depicts a graph of Log2 total luminescent photon flux of the tumors (N=4); *, P<0.05 by Student's t-test.

[6] = tested on: Argonaute (AGO); test: PLK1 siRNA association with Argonaute (pan-AGO immunoprecipitation, qRT-PCR); assay type: cell-based, human; settings: MDA-MB-468 cells treated 2 days; listed as PLK1 EpCAM-AsiCs
Source text: MB-468 cells, treated with PLK1 EPCAM-AsiC or siRNA for 2 days, were lysed, and cell lysates were immunoprecipitated with pan-AGO antibody or IgG isotype control. The amount of PLK1 siRNA in the immunoprecipitates was quantified by Taqman qRT-PCR, presented as log2 mean with SEM, relative to miR-16. **, P<0.01 by Student's t-test relative to siRNA-treated cells. ND, not detectable. […] This is likely because most RNAs that are taken up by cells are not released from endosomes to the cytosol (A. Wittrup et al., Visualizing lipid-formulated siRNA release from endosomes and target gene knockdown. Nature Biotechnology 2015, in press).
Uptake was clearly detected at 22 hr, but increased greatly after 43 hr. To test whether EpCAM-AsiCs are specifically taken up by EpCAM bright cell lines, the 3′ end of the antisense strand of the AsiC was fluorescently labeled. […] Previous studies have shown that AsiCs are processed within cells by Dicer to release the siRNA from the aptamer (10, 12, 15).

[7] = tested on: CD44+CD24low/− and ALDH+ cells; test: Proportion of cells with T-IC phenotype; assay type: cell-based, human; settings: basal-A and luminal lines; listed as PLK1 EpCAM-AsiCs
[8] = tested on: MB231-luc-mCherry tumors; test: Tumor inhibition, EpCAM− MB231-luc-mCherry xenograft; assay type: in vivo, nude mice; settings: 5 mg/kg sc every 3 d (72 h) for 2 wks
Description: For tumor inhibition studies, MB468-luc (5×10^6) and MB231-luc-mCherry (5×10^5) cells trypsinized with Tryple Express (Invitrogen), resuspended in a 1:1 WIT-Matrigel solution and injected subcutaneously in the flank of 8-week old female Nu/J mice (Stock #002019, Jackson Laboratories). Tumors size was analyzed daily using the IVIS Spectra, after 5 days tumors were clearly visible. […] Mice were treated every 72 h for 14 days.

[9] = tested on: breast cancer cell lines; test: Sphere (mammosphere) formation assay; assay type: cell-based, human
Description: For colony formation assay, 1,000 viable cells were treated for 6 h in round bottom 96-well plates and then transferred to 10-cm plates in serum-containing medium. Medium was replaced every 3 d. After 8-14 d, cells were fixed in methanol (−20 C) and stained with crystal violet. For sphere formation assay, 1,000/ml viable cells were treated for 6 h in round bottom 96-well plates and then cultured in suspension in serum-free DMEM/F12 1:1 (Invitrogen), supplemented with EGF (20 ng/ml, BD Biosciences), B27 (1:50, Invitrogen), 0.4% bovine serum albumin (Sigma) and 4 μg/ml insulin (Sigma). Spheres were counted after 1 or 2 weeks.

[10] = listed as EpCAM-AsiC targeting PLK1

Row | Molecule | tumor accumulation after intravenous injection [1] | gene knockdown, EpCAM+ vs EpCAM− cells [2] | tumor initiation, EpCAM− basal-B cells [3] | tumor initiation, EpCAM+ cells [4, 10] | tumor initiation, EpCAM+ cells ([4]; listed as PLK1 EpCAM-AsiCs) | MCF10CA1a tumor growth [5] | PLK1 siRNA bound to Ago / in the RISC [6] | proportion of cells with T-IC phenotype [7] | growth of EpCAM− MB231 tumors [8, 10] | growth of EpCAM− MB231 tumors ([8]; listed as PLK1-targeting AsiCs) | growth of EpCAM− MB231 tumors ([8]; listed as PLK1 EpCAM-AsiCs) | sphere/mammosphere formation, EpCAM+ basal-A and luminal lines [9, 10] | sphere/mammosphere formation, EpCAM− basal-B lines [9, 10] | sphere/mammosphere formation, EpCAM+ basal-A and luminal lines ([9]; listed as PLK1 EpCAM-AsiCs) | sphere/mammosphere formation, EpCAM− basal-B lines ([9]; listed as PLK1 EpCAM-AsiCs)
1 | B1 | did not lead to significant AsiC accumulation within subcutaneous tumors | selectively knocked down expression in EpCAM+ breast and colon cancer cell lines but not in normal epithelial cells or mesenchymal tumor cells | – | – | – | – | – | – | – | – | – | – | – | – | –
2 | B2 | – | – | had no effect on basal-B TNBC tumor initiation; also recorded: only in EpCAM+ tumors | did not show any sign of a tumor after 20 days; also recorded: no tumor initiation | completely blocked tumor formation; also recorded: eliminated tumor initiation by basal-like TNBCs; also recorded: eliminated their ability to form tumors in nude mice | suppresses MCF10CA1a (CA1a) tumor growth | PLK1 siRNA immunoprecipitated with Ago; also recorded: PLK1 siRNA was found in the RISC | reduced the proportion of cells with the phenotype of T-ICs; also recorded: reduced CD44+CD24low and Aldefluor+ cells | remained unchanged | continued to grow | had no effect on EpCAM− mesenchymal TNBCs; also recorded: had no effect on EpCAM− basal-B xenografts | specifically inhibited sphere formation in basal A and luminal; also recorded: decreased the number of spheres only in basal A and luminal cells | had no effect on basal B cells | more strongly inhibited colony and mammosphere formation of EpCAM+ basal-A TNBCs and luminal cell lines than paclitaxel; also recorded: eliminated mammosphere and colony formation; also recorded: more strongly inhibited colony and mammosphere formation of multiple EpCAM+ basal-like TNBCs and a luminal cell line than paclitaxel | inactive against EpCAM− basal-B TNBCs

— patent US11180762B2, “Methods and compositions for the treatment of cancer” (CHILDREN'S MEDICAL CENTER CORPORATION, priority 2014, dated 2021)
